Each block holds one binder with its values, some of them ahead of it.
Experiments:
Human VEGF-A 165 = Human VEGF-A 165 (human, UniProt P15692 207-395); assay: cell-based or functional assay
[1] = target: T1, Recombinant human FcγRIIb, 6xHis-tagged (human, UniProt P31994 46-217, limits assumed); assay: Biacore SPR; His-tagged human FcγR captured on anti-6xHis antibody, DVD-Ig injected
T1 construct: Captured through its 6xHis tag; also called huFcRIIb
T1 sequence: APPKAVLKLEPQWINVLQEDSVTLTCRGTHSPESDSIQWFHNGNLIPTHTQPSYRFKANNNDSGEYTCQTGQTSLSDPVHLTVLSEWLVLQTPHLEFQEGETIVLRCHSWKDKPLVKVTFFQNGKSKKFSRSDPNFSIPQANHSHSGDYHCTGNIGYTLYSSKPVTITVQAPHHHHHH
Procedure: (§1) A CM5 chip (GE Healthcare, Pittsburgh, Pa.) with mouse anti-6×His antibodies (“6×His” disclosed as SEQ ID NO: 405) that were directly immobilized on the chip via amine coupling according to the GE Healthcare protocol to the density of 10000RU (all flow cells) was used for experiments. Human FcγRs were captured on flow cells 2, 3 and 4. Flow cell 1 was used as a reference surface. HBS-EP+ was used as the running buffer. […] The chip surfaces were regenerated with an injection of 10 mM glycine pH 1.5 at a flow rate of 100 μL/minute over all four flow cells after each cycle.

[2] = target: T2, Recombinant human FcγRIIa H131, 6xHis-tagged (human, UniProt P12318 36-218, limits assumed); assay: as above
T2 construct: Captured through its 6xHis tag
T2 sequence: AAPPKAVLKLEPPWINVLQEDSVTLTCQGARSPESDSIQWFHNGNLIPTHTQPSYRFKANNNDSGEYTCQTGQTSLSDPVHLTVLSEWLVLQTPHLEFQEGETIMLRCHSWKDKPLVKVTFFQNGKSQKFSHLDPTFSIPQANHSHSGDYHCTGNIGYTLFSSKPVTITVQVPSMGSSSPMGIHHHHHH
Procedure: as §1

[3] = target: T3, Recombinant human FcγRIIa R131, 6xHis-tagged (human, UniProt P12318 36-218, limits assumed); assay: as above
T3 construct: Captured through its 6xHis tag
T3 sequence: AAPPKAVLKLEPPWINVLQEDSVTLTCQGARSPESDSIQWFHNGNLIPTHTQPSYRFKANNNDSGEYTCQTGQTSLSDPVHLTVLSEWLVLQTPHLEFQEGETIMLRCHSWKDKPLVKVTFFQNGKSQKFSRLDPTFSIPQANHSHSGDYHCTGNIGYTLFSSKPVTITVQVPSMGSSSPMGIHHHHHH
Procedure: as §1

[4] = target: T4, Recombinant human FcγRIIIa F158, 6xHis-tagged (human, UniProt P08637 17-208, limits assumed); assay: as above
T4 construct: Captured through its 6xHis tag
T4 sequence (P08637 other isoform, or with tags, fused parts or gaps limits assumed): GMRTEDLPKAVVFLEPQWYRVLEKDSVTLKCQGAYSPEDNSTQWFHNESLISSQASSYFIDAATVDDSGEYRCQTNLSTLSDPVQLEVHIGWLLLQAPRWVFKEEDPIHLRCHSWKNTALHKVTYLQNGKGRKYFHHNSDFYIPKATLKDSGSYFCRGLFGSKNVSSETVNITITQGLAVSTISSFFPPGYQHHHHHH
Procedure: as §1

Recombinant rat FcRn = target: T5, Recombinant rat FcRn (rat, UniProt P13599 23-298, limits assumed); assay: Biacore SPR; DVD-Ig immobilised by amine coupling, recombinant FcRn injected; 1:1 binding fit
T5 construct: FcRn is normally a heterodimer with beta-2-microglobulin
T5 sequence (looked up) 1: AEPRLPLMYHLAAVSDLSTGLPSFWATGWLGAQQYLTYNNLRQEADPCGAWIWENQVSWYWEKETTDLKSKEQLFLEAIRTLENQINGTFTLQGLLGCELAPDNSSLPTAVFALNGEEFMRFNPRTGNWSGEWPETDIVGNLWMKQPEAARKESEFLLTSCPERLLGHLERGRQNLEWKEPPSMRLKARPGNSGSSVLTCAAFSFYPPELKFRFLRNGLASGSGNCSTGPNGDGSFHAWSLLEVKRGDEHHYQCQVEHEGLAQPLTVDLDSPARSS
T5 sequence (looked up) 2: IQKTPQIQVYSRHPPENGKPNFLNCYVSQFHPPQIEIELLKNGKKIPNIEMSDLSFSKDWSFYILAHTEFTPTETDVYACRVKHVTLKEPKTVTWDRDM
Procedure: Human, cynomolgus, mouse, rat and rabbit recombinant FcRns were injected over all the flow cells at a flow rate of 50 μL/minute for 1 minute at a concentrations range of from 2.7 to 6000 nM (three fold serial dilution), followed by a 2 minute dissociation time. The surfaces were regenerated with an injection of 10 mM HCl at 100 μL/minute for 2 seconds followed by an injection of HBS-EP+, pH 7.4, at a flow rate of 50 μL/minute for 30 seconds over all four flow cells. Samples were prepared and run in two running buffer systems, pH 6.0 MES-EP+, and pH […]. Recombinant human FcγRIIIa V158 and rat and mouse FcRn data were fitted to 1:1 kinetic model. Recombinant human FcγRIIa R131 and FcγRIIa H131, FcγRIIIa F158, and recombinant human, cynomolgus and rabbit FcRn binding data were fitted to a steady state affinity model. Biacore T200 Evaluation Software version 2.0 was used to fit all the data.

[5] = target: T6, Recombinant human FcγRIIIa V158, 6xHis-tagged (human, UniProt P08637 17-208, limits assumed); assay: Biacore SPR; His-tagged huFcγRIIIa 158V captured on anti-6xHis antibody, DVD-Ig injected; steady state fit
T6 construct: Captured through its 6xHis tag; also called huFcRIIIa 158V
T6 sequence (P08637 other isoform, or with tags, fused parts or gaps limits assumed): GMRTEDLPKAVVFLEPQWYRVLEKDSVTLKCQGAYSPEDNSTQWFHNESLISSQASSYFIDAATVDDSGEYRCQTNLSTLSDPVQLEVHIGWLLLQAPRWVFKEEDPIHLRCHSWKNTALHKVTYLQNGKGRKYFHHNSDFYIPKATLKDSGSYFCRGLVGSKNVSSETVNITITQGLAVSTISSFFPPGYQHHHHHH
Procedure: as §1
The binding of DVD-Ig molecules to FcRn from various species and the binding of DVD-Ig molecules to various FcγRs were characterized by Biacore using the method described in Example 1.2.

[6] = target: T7, recombinant human PDGF-BB (human, UniProt P01127 82-190); assay: competition ELISA: blocks hPDGF-BB-biotin binding to coated hPDGF-Rβ-Fc
T7 construct: also called hPDGF-BB; huPDGF-BB
T7 sequence (P01127 82-190 limits assumed): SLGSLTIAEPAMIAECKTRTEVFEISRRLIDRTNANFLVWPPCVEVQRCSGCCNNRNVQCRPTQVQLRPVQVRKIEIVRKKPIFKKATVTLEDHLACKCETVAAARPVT
Procedure: Plates were then washed four times with wash buffer (TBS, 0.05% Tween-20) and blocked with Superblock blocking buffer (Thermo Scientific, cat#37535). During the blocking step, supernatants, antibodies, benchmark compounds or DVD-Ig were diluted in assay diluent (10% Superblock containing 0.05% surfactamps) and an eight point titration of each sample molecule was performed. […] Following incubation, plates were washed four times with wash buffer. Detection reagent Streptavidin-polyHRP-40 (Fitzgerald, cat#65r-s104phrp) was diluted in assay diluent and added to plates (50 μL) for 45 minutes at 25° C. with shaking. Plates were washed four times with wash buffer and developed with the addition of Enhanced K-blue TMB substrate (Neogen, cat#308177). The reaction was stopped with 2N sulfuric acid (VWR, cat# BDH3500-1) and the absorbance was read at 450 nm-570 nm. […] Data was analyzed using Softmax Pro 4.8 software and IC₅₀ values calculated using a sigmoidal dose response (variable slope) fit in GraphPad Prism 5.

[7] = target: T8, recombinant human VEGF165 (human, UniProt P15692 207-395); assay: competition ELISA: blocks biotinylated hVEGF165 binding to coated hVEGF-R2-Fc
T8 construct: also called hVEGF165; huVEGF-A165
T8 sequence (P15692 other isoform, or with tags, fused parts or gaps limits assumed): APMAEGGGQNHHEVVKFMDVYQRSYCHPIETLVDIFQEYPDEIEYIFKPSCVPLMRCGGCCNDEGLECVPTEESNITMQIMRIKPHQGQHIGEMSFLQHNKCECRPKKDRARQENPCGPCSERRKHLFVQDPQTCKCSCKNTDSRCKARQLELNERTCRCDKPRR
Procedure: To identify molecules that could block the binding of hVEGF₁₆₅ to the hVEGF-R2 (KDR/Flk-1) receptor, a competition ELISA was performed. […] Plates were then washed four times with wash buffer (TBS, 0.05% Tween-20) and blocked with Superblock blocking buffer (Thermo Scientific, cat#37535). […] The pre-incubated sample/hVEGF₁₆₅ complex was added to the coated plate at 50 μL in duplicate and incubated for 30 minutes at 25° C. with shaking. Following incubation, plates were washed four times with wash buffer. Streptavidin-polyHRP-40 (Fitzgerald cal#65r-s104phrp) was diluted in assay diluent (10% Superblock containing 0.05% surfactamps) and added to plates (50 μL) for 45 minutes at 25° C. with shaking. Plates were washed four times with wash buffer and developed with the addition of Enhanced K-blue TMB substrate (Neogen cat#308177). The reaction was stopped with 2N sulfuric acid (VWR, cat# BDH3500-1) and the absorbance was read at 450 nm-570 nm. A decrease in observed optical density indicates the test molecule is blocking the hVEGF₁₆₅ binding to the hVEGF-R2-Fc. Data was analyzed using Softmax Pro 4.8 software and IC₅₀ values calculated using a sigmoidal dose response (variable slope) fit in GraphPad Prism 5.

Chain of Human VEGF-A 165 (P15692 other isoform, or with tags, fused parts or gaps): as the sequence (P15692 other isoform, or with tags, fused parts or gaps limits assumed) above

- huVEGF-A165 Neutralization Potency in HMVEC-d cells (Human VEGF-A 165): 2.15 nM
B1: chBEW-9D2 (antibody, human IgG1, kappa, L234A L235A, V domains shown)
VH: QIQLVQSGPELKKPGESVKISCKASGYTFTNYGMYWVKLAPGQGLQYLGWINTETGKPTYADDFKGRFVFFLETSASTAYLQINNLRNEDMATYFCARPSDYYDGFWFAYWGQGTLVTVSS
VL: DTVLTQSPALTVSPGERVSISCRASEWVNSYMHWYQQNPGQQPKLLIYKASNLASGVPARFSGSGSGTDFTLTLDPVEADDTATYFCQQSWNDPLTFGSGTKLEIKR

- binding result (Recombinant rat FcRn): no binding (tested: FcRn 2.7 to 6000 nM)
- Kd [5]: 12 µM
B2: 4G8.3-SL-9E8.4 (PR-1569579), anti-VEGF-A/anti-PDGF-BB DVD-Ig, hu IgG1/k mut(234,235) H435A (bispecific antibody)
heavy: EVQLVQSGSELKKPGASVKVSCKASGYTFTNYGMYWVRQAPGQGLEWMGWINTETGKPTYADDFKGRFVFSLDTSVSTAYLQISSLKAEDTAVYYCARTNYYYRSYIFYFDYWGQGTMVTVSSASTKGPEVTLRESGPALVKPTQTLTLTCTFSGFSLSTYGMGVGWIRQPPGKALEWLANIWWDDDKYYNPSLKNRLTISKDTSKNQVVLTMTNMDPVDTATYYCARIESIGTTYSFDYWGQGTMVTVSSASTKGPSVFPLAPSSKSTSGGTAALGCLVKDYFPEPVTVSWNSGALTSGVHTFPAVLQSSGLYSLSSVVTVPSSSLGTQTYICNVNHKPSNTKVDKKVEPKSCDKTHTCPPCPAPEAAGGPSVFLFPPKPKDTLMISRTPEVTCVVVDVSHEDPEVKFNWYVDGVEVHNAKTKPREEQYNSTYRVVSVLTVLHQDWLNGKEYKCKVSNKALPAPIEKTISKAKGQPREPQVYTLPPSREEMTKNQVSLTCLVKGFYPSDIAVEWESNGQPENNYKTTPPVLDSDGSFFLYSKLTVDKSRWQQGNVFSCSVMHEALHNAYTQKSLSLSPGK
light: DTVLTQSPATLSLSPGERATLSCRASESVSTHMHWYQQKPGQAPRLLIYGASNLESGVPARFSGSGSGTDFTLTISSLEPEDFAVYFCQQSWNDPFTFGQGTKLEIKRTVAAPSVFIFPPEFVLTQSPGTLSLSPGERATLSCERSSGDIGDSYVSWYQQKPGQAPRLVIYADDQRPSGIPDRFSGSGSGTDFTLTISRLEPEDFAVYYCQSYDINIDIVFGGGTKVEIKGTVAAPSVFIFPPSDEQLKSGTASVVCLLNNFYPREAKVQWKVDNALQSGNSQESVTEQDSKDSTYSLSSTLTLSKADYEKHKVYACEVTHQGLSSPVTKSFNRGEC
notes: also called hVEGF 4G8.3-SL-hPDGF 9E8.4 [hu IgG1/k] mut(234, 235) H435A
- binding result [1]: no binding (tested: DVD-Ig 31.25 to 4000 nM)
- binding result [2]: no binding (tested: DVD-Ig 31.25 to 4000 nM)
- binding result [3]: no binding (tested: DVD-Ig 31.25 to 4000 nM)
- binding result [4]: no binding (tested: DVD-Ig 31.25 to 4000 nM)

- IC50 [6]: > 5 nM
- IC50 [7]: 0.131 nM
B3: hVEGF 4G8.3-LS-hPDGF 9E8.4 [hu IgG1/k] mut(234, 235) H435A (bispecific antibody)
heavy: EVQLVQSGSELKKPGASVKVSCKASGYTFTNYGMYWVRQAPGQGLEWMGWINTETGKPTYADDFKGRFVFSLDTSVSTAYLQISSLKAEDTAVYYCARTNYYYRSYIFYFDYWGQGTMVTVSSASTKGPSVFPLAPEVTLRESGPALVKPTQTLTLTCTFSGFSLSTYGMGVGWIRQPPGKALEWLANIWWDDDKYYNPSLKNRLTISKDTSKNQVVLTMTNMDPVDTATYYCARIESIGTTYSFDYWGQGTMVTVSSASTKGPSVFPLAPSSKSTSGGTAALGCLVKDYFPEPVTVSWNSGALTSGVHTFPAVLQSSGLYSLSSVVTVPSSSLGTQTYICNVNHKPSNTKVDKKVEPKSCDKTHTCPPCPAPEAAGGPSVFLFPPKPKDTLMISRTPEVTCVVVDVSHEDPEVKFNWYVDGVEVHNAKTKPREEQYNSTYRVVSVLTVLHQDWLNGKEYKCKVSNKALPAPIEKTISKAKGQPREPQVYTLPPSREEMTKNQVSLTCLVKGFYPSDIAVEWESNGQPENNYKTTPPVLDSDGSFFLYSKLTVDKSRWQQGNVFSCSVMHEALHNAYTQKSLSLSPGK
light: DTVLTQSPATLSLSPGERATLSCRASESVSTHMHWYQQKPGQAPRLLIYGASNLESGVPARFSGSGSGTDFTLTISSLEPEDFAVYFCQQSWNDPFTFGQGTKLEIKRTVAAPEFVLTQSPGTLSLSPGERATLSCERSSGDIGDSYVSWYQQKPGQAPRLVIYADDQRPSGIPDRFSGSGSGTDFTLTISRLEPEDFAVYYCQSYDINIDIVFGGGTKVEIKGTVAAPSVFIFPPSDEQLKSGTASVVCLLNNFYPREAKVQWKVDNALQSGNSQESVTEQDSKDSTYSLSSTLTLSKADYEKHKVYACEVTHQGLSSPVTKSFNRGEC
notes: DVD-Ig, outer hBDB-4G8.3, inner hBDI-9E8.4, HG-long/LK-short; also called PR-1575573; 4G8.3-LS-9E8.4
